Target: MEF2C-Flag (myocyte enhancer factor 2C with Flag tag) (UniProt Q8CFN5 1-474)
Experiment: co-IP

Chain of MEF2C-Flag (myocyte enhancer factor 2C with Flag tag) (Q8CFN5 whole entry): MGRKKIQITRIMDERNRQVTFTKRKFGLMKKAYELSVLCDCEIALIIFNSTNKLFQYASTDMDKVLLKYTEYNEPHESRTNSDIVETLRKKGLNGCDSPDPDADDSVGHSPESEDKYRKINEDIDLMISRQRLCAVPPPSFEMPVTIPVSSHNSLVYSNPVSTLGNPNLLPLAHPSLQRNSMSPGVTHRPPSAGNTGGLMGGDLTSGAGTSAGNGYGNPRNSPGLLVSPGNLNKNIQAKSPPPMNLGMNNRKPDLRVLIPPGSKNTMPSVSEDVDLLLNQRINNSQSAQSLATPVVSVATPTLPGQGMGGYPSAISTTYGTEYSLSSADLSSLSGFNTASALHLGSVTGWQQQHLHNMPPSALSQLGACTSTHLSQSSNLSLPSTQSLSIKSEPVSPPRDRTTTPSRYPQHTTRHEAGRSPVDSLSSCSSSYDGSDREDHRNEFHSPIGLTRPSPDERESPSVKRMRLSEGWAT

fold amount co-immunoprecipitated against the Flag-vector control: 4 fold
B1: Gli2 (glioma-associated factor 2) (natural protein, mouse, UniProt Q0VGV1 1-1540, looked up)
chain: METSAPAPALEKKEAKSGLLEDSSFPDPGKKACPLAVAAAVAAHGVPQQLLPAFHAPLPIDMRHQEGRYHYDPHSVHSVHGPPTLSGSPFISDISLIRLSPHPAGPGESPFSAHHPYVNPHMEHYLRSVHSSPTLSMISAARGLSPADVAHEHLKERGLFSLAAPGTNPSDYYHQMTLMASHPTPYGDLLMQSGGAASAPHLHDYLNPVDASRFSSPRVTPRLSRKRALSISPLSDASLDLQRMIRTSPNSLVAYINNSRSSSAASGSYGHLSAGALSPAFTFPHPINPVAYQQILSQQRGLGSAFGHTPPLIQPSPTFLAQQPMTLTSISTMPTQLSSSSSNCLNDANQNKQNSESAVSSTVNPITIHKRSKVKTEAEGLRPASPLGLTQEQLADLKEDLDRDDCKQEAEGVIYETNCHWADCTKEYDTQEQLVHHINNEHIHGEKKEFVCRWQACTREQKPFKAQYMLVVHMRRHTGEKPHKCTFEGCSKAYSRLENLKTHLRSHTGEKPYVCEHEGCNKAFSNASDRAKHQNRTHSNEKPYICKIPGCTKRYTDPSSLRKHVKTVHGPDAHVTKKQRNDVHVRAPLLKENGDNEASAEPGGRGPEESVEASSTSHTVEDCLHIKAIKTESSGLCQSSPGAQSSCSSEPSPLGSAPNNDSGMEMPGTGPGSLGDLTALADTCPGADTSALAAPSTGGLQLRKHMSTVHRFEQLKREKLKSLKDSCSWAGPAPHTRNTKLPPLPVNGSVLENFNNTGGGGPAGLLPSQRLPELTEVTMLSQLQERRDSSTSTMSSAYTVSRRSSGISPYFSSRRSSEASPLGGLRPHNASSADSYDPISTDASRRSSEASQCSGGGPGLLNLTPAQQYNLRAKYAAATGGPPPTPLPGLDRVSLRTRLALLDAPERALPGACPHPLGPRRGSDGPTYSHGHGHGYAGAAPAFPHEGPNSSTRRASDPVRRPDPLILPRVQRFHSTHNMNPGSLPPCADRRGLHVQSHPSVDSNLTRNAYSPRPPSINENVVMEAVAAGVDGPGLECDLGLVEDELVLPDDVVQYIKAHTGGTLDDGIRQGYPTEGTGFPENSKLPSPGLQGHRRLAAADSNMGPSAPGLGGCQLSYSPSSNLNKSNMPVQWNEVSSGTVDALPTQVKPPPFPHSNLAVVQQKPAFGQYPGYNPQSVQSSSGGLDSTQPHLQLRGAPSASRGSYTQQPRQPAAGSQCLGMSAAMSPQASYSQAHPQLSPNIVSGSLNQFSPSCSNMAAKPSHLGLPQQMEVVPNATIMNGHQREHGVPNSSLAAVSQPHPVLSYPQQDSYQQGSNLLSSHQPGFMESQQNAGFGLMQPRPPLEPNTASRHRGVRSGQQQLYARTTGQAMVTSANQETAEAMPKGPAGTMVSLAPQPSQDTGRAQDQNTLYYYGQIHMYEQNGGCPAVQPQPPQPQACSDSIQPEPLPSPGVNQVSSTVDSQLLEPPQIDFDAIMDDGDHSSLFSGALSPTLLHNLSQNSSRLTTPRNSLTLPSIPAGISNMAVGDMSSMLTSLAEESKFF

Source: publication PMC3333882 (Nucleic Acids Research, 2011)
